# Bridge positions count the residues as written; N and C are the ends. Square brackets hold non-standard residues; d marks the D form. Primed or numbered codes have the meaning given here. Ends that are not written are not given here. Tyr(3-NO2) = N[C@@H](Cc1ccc(O)c([N+](=O)[O-])c1)C(=O)O; Phe(4-tBu) = CC(C)(C)c1ccc(C[C@H](N)C(=O)O)cc1; Tyr(3-Cl) = N[C@@H](Cc1ccc(O)c(Cl)c1)C(=O)O; Phe(4-NH2) = Nc1ccc(C[C@H](N)C(=O)O)cc1; 1,4 AMB(Gd^T) = not defined here; Gd^G = not defined here; Gd^T = not defined here; Gd^T″ = GdDTPA-thiourea
# Experiments:
# [1] = target: T1, human collagen type I, acid soluble, extracted from placenta (Sigma C7774) (human, UniProt P02452 162-1218; P08123 80-1119); assay: dried collagen assay
# T1 construct: tissue extract, gelled and dried in wells; also called dried human collagen; h-Collagen
# [2] = target: T2, rat collagen, acid soluble, type I, rat tail (Upstate 08-115) (rat, UniProt P02454 152-1207; P02466 86-1125); assay: dried collagen assay
# T2 construct: tissue extract, gelled and dried in wells; also called dried rat collagen
# T2 sequence (P02454 152-1207, chain 1 of 2): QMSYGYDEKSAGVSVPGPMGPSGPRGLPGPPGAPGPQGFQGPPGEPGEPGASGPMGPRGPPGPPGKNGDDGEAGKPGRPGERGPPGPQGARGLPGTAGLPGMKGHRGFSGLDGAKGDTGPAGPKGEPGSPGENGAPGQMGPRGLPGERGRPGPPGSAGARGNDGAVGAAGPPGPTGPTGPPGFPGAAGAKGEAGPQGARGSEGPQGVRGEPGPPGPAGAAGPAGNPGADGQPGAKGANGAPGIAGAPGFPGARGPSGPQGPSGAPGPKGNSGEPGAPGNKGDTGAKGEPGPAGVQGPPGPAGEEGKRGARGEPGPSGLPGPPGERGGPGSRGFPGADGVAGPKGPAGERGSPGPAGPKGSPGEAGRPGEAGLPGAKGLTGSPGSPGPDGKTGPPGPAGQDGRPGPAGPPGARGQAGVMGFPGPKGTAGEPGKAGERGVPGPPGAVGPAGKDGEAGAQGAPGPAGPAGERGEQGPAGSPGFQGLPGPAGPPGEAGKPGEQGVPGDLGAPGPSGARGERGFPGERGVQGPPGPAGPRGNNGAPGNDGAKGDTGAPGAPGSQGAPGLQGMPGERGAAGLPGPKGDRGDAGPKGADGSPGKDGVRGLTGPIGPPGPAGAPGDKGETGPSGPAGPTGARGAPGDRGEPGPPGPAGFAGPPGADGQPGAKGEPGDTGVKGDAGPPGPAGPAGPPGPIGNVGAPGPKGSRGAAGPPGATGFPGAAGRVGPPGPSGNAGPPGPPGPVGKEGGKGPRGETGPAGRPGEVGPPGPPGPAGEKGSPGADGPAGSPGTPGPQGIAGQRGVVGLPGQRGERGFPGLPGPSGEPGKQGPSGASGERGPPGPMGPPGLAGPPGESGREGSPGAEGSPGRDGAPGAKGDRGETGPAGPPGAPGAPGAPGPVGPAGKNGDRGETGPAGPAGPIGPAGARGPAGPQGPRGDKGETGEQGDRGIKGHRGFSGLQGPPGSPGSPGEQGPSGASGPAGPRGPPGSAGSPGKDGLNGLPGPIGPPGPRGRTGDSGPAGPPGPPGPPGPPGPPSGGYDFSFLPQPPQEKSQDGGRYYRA
# T2 sequence (P02466 86-1125, chain 2 of 2): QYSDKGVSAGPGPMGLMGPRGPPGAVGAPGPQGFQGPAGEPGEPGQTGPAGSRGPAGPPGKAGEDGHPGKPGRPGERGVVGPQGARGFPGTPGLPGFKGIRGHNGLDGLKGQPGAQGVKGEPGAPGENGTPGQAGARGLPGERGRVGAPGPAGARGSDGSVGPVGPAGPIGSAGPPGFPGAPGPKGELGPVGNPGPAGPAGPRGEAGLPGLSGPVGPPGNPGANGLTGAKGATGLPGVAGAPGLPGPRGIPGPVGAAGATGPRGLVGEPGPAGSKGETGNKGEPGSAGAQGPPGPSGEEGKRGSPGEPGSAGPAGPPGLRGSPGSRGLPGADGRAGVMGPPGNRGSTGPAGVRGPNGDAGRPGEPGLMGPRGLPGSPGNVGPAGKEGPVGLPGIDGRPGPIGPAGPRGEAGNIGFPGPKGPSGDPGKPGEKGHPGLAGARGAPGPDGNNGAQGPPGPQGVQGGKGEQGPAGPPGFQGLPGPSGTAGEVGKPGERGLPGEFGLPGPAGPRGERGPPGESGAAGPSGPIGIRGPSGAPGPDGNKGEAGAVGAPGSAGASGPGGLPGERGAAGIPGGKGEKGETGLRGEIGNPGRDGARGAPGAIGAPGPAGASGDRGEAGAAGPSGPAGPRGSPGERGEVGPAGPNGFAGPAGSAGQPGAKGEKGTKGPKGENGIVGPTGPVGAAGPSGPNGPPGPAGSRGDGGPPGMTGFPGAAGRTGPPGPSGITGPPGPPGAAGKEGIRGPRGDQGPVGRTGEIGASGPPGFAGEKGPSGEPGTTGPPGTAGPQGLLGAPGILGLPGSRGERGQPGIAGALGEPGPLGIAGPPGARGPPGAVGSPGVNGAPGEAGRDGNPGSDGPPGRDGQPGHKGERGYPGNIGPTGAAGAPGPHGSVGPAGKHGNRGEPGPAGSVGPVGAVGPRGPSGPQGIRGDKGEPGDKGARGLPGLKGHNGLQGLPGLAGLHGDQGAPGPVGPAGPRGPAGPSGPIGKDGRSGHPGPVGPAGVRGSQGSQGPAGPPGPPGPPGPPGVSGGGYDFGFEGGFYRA
# T1 sequence (P02452 162-1218 limits assumed, chain 1 of 2): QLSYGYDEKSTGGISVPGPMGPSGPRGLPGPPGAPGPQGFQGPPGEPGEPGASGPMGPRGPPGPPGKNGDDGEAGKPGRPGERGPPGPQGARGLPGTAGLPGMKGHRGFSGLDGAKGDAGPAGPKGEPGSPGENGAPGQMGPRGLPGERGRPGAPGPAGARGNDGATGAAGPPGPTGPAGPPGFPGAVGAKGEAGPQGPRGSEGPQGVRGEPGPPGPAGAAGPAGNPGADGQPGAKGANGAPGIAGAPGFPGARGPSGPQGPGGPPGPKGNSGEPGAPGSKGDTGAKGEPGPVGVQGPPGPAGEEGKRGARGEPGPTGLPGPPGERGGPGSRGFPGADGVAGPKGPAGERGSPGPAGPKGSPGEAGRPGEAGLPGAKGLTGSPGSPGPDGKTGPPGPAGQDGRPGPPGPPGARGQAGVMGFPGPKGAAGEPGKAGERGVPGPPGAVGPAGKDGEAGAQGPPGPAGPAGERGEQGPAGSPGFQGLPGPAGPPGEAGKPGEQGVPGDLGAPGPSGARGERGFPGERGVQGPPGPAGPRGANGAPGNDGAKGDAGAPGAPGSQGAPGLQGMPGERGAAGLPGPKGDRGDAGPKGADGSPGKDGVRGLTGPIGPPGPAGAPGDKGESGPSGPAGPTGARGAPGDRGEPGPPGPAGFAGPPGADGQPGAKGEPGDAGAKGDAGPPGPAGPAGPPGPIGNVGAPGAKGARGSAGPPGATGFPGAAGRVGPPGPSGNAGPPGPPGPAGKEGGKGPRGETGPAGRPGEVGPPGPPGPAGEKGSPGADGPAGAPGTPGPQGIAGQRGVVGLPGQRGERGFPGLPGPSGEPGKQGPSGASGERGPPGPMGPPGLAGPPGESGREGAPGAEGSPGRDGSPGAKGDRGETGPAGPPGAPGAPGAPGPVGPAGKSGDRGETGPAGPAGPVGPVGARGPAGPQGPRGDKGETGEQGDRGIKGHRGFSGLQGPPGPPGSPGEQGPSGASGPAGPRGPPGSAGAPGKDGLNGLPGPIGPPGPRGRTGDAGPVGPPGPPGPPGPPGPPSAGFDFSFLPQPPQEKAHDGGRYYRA
# T1 sequence (P08123 80-1119 limits assumed, chain 2 of 2): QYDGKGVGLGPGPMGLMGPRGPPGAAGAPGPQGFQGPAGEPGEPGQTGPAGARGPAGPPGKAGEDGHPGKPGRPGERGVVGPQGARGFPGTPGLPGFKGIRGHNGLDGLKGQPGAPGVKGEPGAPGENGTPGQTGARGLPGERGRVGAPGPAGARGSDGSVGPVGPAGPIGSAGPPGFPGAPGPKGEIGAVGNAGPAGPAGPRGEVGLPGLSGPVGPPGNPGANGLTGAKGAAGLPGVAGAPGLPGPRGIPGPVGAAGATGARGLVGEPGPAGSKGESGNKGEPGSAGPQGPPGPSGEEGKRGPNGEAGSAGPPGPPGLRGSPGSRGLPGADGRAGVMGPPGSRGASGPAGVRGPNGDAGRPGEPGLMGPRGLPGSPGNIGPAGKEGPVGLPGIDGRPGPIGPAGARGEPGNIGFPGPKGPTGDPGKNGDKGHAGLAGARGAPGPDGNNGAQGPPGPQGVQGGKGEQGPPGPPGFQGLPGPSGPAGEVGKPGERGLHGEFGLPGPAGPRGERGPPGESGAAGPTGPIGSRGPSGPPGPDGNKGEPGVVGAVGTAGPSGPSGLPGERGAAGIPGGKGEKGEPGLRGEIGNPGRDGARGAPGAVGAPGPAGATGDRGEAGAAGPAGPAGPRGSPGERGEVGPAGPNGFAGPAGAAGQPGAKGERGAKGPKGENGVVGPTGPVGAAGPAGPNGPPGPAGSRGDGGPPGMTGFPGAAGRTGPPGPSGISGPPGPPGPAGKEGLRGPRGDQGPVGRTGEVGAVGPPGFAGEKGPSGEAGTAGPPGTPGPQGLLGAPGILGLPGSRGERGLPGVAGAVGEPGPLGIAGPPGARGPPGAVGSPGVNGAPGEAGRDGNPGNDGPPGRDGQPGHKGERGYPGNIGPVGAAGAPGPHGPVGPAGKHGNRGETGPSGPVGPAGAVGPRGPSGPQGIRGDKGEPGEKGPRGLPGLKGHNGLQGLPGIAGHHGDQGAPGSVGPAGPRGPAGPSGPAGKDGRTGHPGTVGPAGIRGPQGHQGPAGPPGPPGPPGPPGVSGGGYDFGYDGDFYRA
% bound [1] [%],% bound [2] [%],Binder
23,9,{Gd^T}-DWTCSGDEYTWYCNYE (disulfide 4-13 (inferred); not fully specified (C-terminus); reading uncertain) [Compound ID 842]
20,21,{Gd^T″}-DWTCS[dY]DEYTWHCNYE (disulfide 4-13 (inferred); not fully specified (C-terminus)) [Compound ID 829]
55,36,{Gd^T}-DWTC[Tyr(3-NO2)]GDEYTWHCNYE (disulfide 4-13 (inferred); not fully specified (C-terminus); reading uncertain) [Compound ID 843]
61,63,"{Gd^T″}-DWTC[Tyr(Bn,3-Cl)]GDEYTWHCNYE (disulfide 4-13 (inferred); not fully specified (C-terminus)) [Compound ID 825]"
33,0,{Gd^T″}-GQWHCT[dT]RFPHHYCLYG (disulfide 5-14 (inferred)) [Compound ID 879]
58,41,{Gd^T″}-GQWHCATRFPHHYCLYG (disulfide 5-14 (inferred)) [Compound ID 877]
12,0,{Gd^T″}-GQWHCTTIFPHH[dY]CLYG (disulfide 5-14 (inferred); not fully specified (C-terminus)) [Compound ID 917]
63,56,{Gd^T″}-GQWHCTTDFPHHYCL[Tyr(3-Cl)]G (disulfide 5-14 (inferred)) [Compound ID 892]
27,15,{Gd^T}-GQWHCTTRFPHHYCAYG (disulfide 5-14 (inferred); not fully specified (C-terminus); reading uncertain) [Compound ID 855]
38,15,{Gd^T″}-GQWHCTTDFPHHYCLFG (disulfide 5-14 (inferred)) [Compound ID 890]
65,55,{Gd^T″}-GQWHCTTK(Gd^T″)FPHHYCLYG (disulfide 5-14 (inferred); not fully specified (C-terminus)) [Compound ID 813]
20,14,{Gd^T″}-GQWHCT[dY]RFPHHYCLYG (disulfide 5-14 (inferred); not fully specified (C-terminus)) [Compound ID 899]

# More lines, now with the values behind:
Binder,% bound [1] [%],% bound [2] [%]
{Gd^G}-DWTCS[dR]DEYTWHCNYE (disulfide 4-13 (inferred); not fully specified (C-terminus); reading uncertain) [Compound ID 821],56,29
{Gd^T}-DWTCSGDEYRWHCNYE (disulfide 4-13 (inferred); not fully specified (C-terminus); reading uncertain) [Compound ID 845],36,10
{Gd^T}-DWTCYGDEYTWHCNYE (disulfide 4-13 (inferred); not fully specified (C-terminus); reading uncertain) [Compound ID 844],68,48
{Gd^G}-DWTCRGDEYTWHCNYE (disulfide 4-13 (inferred); not fully specified (C-terminus); reading uncertain) [Compound ID 822],47,20
{Gd^T″}-DWTC[Phe(4-tBu)]GDEYTWHCNYE (disulfide 4-13 (inferred); not fully specified (C-terminus)) [Compound ID 827],41,20
"{Gd^T″}-GQWHCTTYFPHHYCLYG-{1,4 AMB(Gd^T)} (disulfide 5-14 (inferred); reading uncertain) [Compound ID 816]",48,48
{Gd^T}-GAWHCTTRFPHHYCLYG (disulfide 5-14 (inferred); not fully specified (C-terminus); reading uncertain) [Compound ID 857],67,69
{Gd^T}-GQWHCTTRFPAHYCLYG (disulfide 5-14 (inferred); not fully specified (C-terminus); reading uncertain) [Compound ID 865],30,17
{Gd^T}-GQWHCTTRFPHH[dY]CLYG (disulfide 5-14 (inferred); not fully specified (C-terminus); reading uncertain) [Compound ID 864],64,50
{Gd^T″}-GAWHCTTYFPHH[dY]CLYG (disulfide 5-14 (inferred); not fully specified (C-terminus)) [Compound ID 915],15,0
{Gd^T″}-GAWHCTTLFPHH[dY]CLYG (disulfide 5-14 (inferred); not fully specified (C-terminus)) [Compound ID 908],20,0
{Gd^T″}-GQWHCTTRFPSHYCLYG (disulfide 5-14 (inferred)) [Compound ID 880],30,0
{Gd^T″}-GQWHCTTD[Phe(4-NH2)]PHHYCLYG (disulfide 5-14 (inferred)) [Compound ID 884],24,15
{Gd^T}-GQWHCTTDFPHHYCLYG (disulfide 5-14 (inferred); not fully specified (C-terminus); reading uncertain) [Compound ID 851],50,41
{Gd^T″}-GQWSCTTRFPHHYCLYG (disulfide 5-14 (inferred)) [Compound ID 870],30,28
GQWHCYTLFPHHYCLYG (disulfide 5-14 (inferred); not fully specified (N-terminus)) [Compound ID 920],67,91
{Gd^T}-GQWHCTTAFPHHYCLYG (disulfide 5-14 (inferred); not fully specified (C-terminus); reading uncertain) [Compound ID 853],66,57
{Gd^T″}-GQWHCTYLFPHHYCLYG (disulfide 5-14 (inferred)) [Compound ID 921],68,35
{Gd^T″}-GSWHCTTLFPHH[dY]CLYG (disulfide 5-14 (inferred); not fully specified (C-terminus)) [Compound ID 911],15,0
{Gd^T}-G[dQ]WHCTTRFPHHYCLYG (disulfide 5-14 (inferred); not fully specified (C-terminus); reading uncertain) [Compound ID 866],60,38
{Gd^T″}-GDWHCTTLFPHH[dY]CLYG (disulfide 5-14 (inferred); not fully specified (C-terminus)) [Compound ID 910],13,0
{Gd^T}-GQWHCTTRYPHHYCLYG (disulfide 5-14 (inferred); not fully specified (C-terminus); reading uncertain) [Compound ID 859],47,38
{Gd^T″}-GQWACTTRFPHHYCLYG (disulfide 5-14 (inferred)) [Compound ID 876],48,26
{Gd^T″}-GQWHCTTRFPHHYCK(Gd^T″)YG (disulfide 5-14 (inferred); not fully specified (C-terminus)) [Compound ID 815],66,59
{Gd^T″}-K(Gd^T″)K(Gd^T″)WHCYTYFPHHYCVYG (disulfide 5-14 (inferred); not fully specified (C-terminus)) [Compound ID 801],81,77
